In PMC4802042:

B1: MKP5 catalytic domain (MKP5-CD, residues 320-467) (domain or fragment)
chain: AELTPILPFLFLGNEQDAQDLDTMQRLNIGYVINVTTHLPLYHYEKGLFNYKRLPATDSNKQNLRQYFEEAFEFIEEAHQCGKGLLIHCQAGVSRSATIVIAYLMKHTRMTMTDAYKFVKGKRPIISPNLNFMGQLLEFEEDLNNGVT
B2: MKP7-CD (F285A) (domain or fragment)
chain: NIGPTRILPNLYLGCQRDVLNKELMQQNGIGYVLNASNTCPKPDFIPESHFLRVPVNDSFCEKILPWLDKSVDFIEKAKASNGCVLVHCLAGISRSATIAIAYIMKRMDMSLDEAYRFVKEKRPTISPNANFLGQLLDYEKKIKNQ

Columns and labels:
[1] = biological target: double-phosphorylated JNK1 (phospho-JNK1) (human)
[2] = biological target: double-phosphorylated JNK1 (phospho-JNK1) (human); remark: listed apart in the source

Row | Binder | Km of MKP5-CD for pJNK1 substrate, relative to that of MKP7-CD [1] [fold] | phosphatase activity for JNK1 dephosphorylation, relative to wild-type MKP7-CD (Fig. 4a) [2] [fold]
1 | B1 | 20 | 
2 | B2 |  | 10
